Measurements reported in patent publication US20110104713A1, “PRODUCTS AND PROCESSES FOR MODULATING PEPTIDE-PEPTIDE BINDING DOMAIN INTERACTIONS” (priority 2002, published 2011).

Target: T1, Plk-1 PBD (residues 326-603) (Homo sapiens, UniProt P53350)
T1 construct: sample cell containing 15 μM Plk-1 PBD (residues 326-603); GST (N, cleaved yes); made in house; host or cells: E. coli BL21
Assay: Isothermal titration calorimetry of peptides with Plk-1 PBD
Type: binding
Conditions: ITC; no detectable binding for a Plk1 PBD concentration of at least 150 μM
Experimental: For deletion mapping of the PBD, C-terminal fragments of Plk-1 were generated by PCR and cloned into the EcoRI and XhoI sites of pcDNA3.1 (Invitrogen). For production of recombinant PBD as a GST fusion in bacteria, the 326-603 fragment of Plk-1 was ligated into the EcoRI and XhoI sites of pGEX-4T (Pharmacia), transformed into BL21, and induced in late log-phase cells at 37° C. for 3.5 hours in the presence of 0.4 mM IPTG. For measurements of peptide binding affinity by ITC, GST-Plk-1 (326-603) was isolated from bacterial lysates using glutathione agarose, cleaved from GST using thrombin (10 U/mL), and purified by anion exchange chromatography (Q Sepharose HP, Pharmacia).
Peptides were synthesized by solid phase technique with two C-terminal lysines to enhance solubility, purified by reverse phase HPLC following deprotection, and confirmed by MALDI-TOF 9 Matrix-assisted laser desorption/ionisation-time of flight mass spectrometry. Some peptides contained an additional tyrosine residue to facilitate concentration determination by optical absorbance. calorimetry measurements were performed using a VP-ITC microcalorimeter (MicroCal Inc., Studio City, Calif.). Experiments involved 10 μL injections of peptide solutions (150 μM-180 μM) into a sample cell containing 15 μM Plk-1 PBD (residues 326-603) in 50 mM Tris/HCl (pH 8.1), 200 mM NaCl, 2 mM TCEP. Thirty injections were performed with a spacing of 240 s and a reference power of 25 μCal/s. Binding isotherms were plotted and analyzed using Origin Software (MicroCal Inc. Studio City, Calif.).
Peptides were synthesized by solid phase technique with two C-terminal lysines to enhance solubility. Some peptides contained an additional tyrosine residue to facilitate concentration determination by optical absorbance. Isothermal titration calorimetry was performed using a VP-ITC microcalorimeter (MicroCal Inc. Studio City, Calif.) by titration of 15-40 μM solutions of PBD proteins with 30×10 μl injections of […] peptide in a starting volume of 1.4-2.0 ml. Binding isotherms were plotted and analyzed using Origin Software (MicroCal Inc. Studio City, Calif.). Binding of in vitro translated Plk1 PBD (wild type and mutants) to bead-immobilized pTP and TP peptide libraries was performed as described previously (Elia et al., Science 299:1228-1231, 2003). pTP and TP indicate the peptide libraries biotin-Z-Gly-Z-Gly-Gly-Ala-X-X-B-X-pThr-Pro-X-X-X-X-Ala-Lys-Lys-Lys SEQ ID NO: 30 biotin-Z-Gly-Z-Gly-Gly-Ala-X-X-B-X-Thr-Pro-X-X-X-X-Ala-Lys-Lys-Lys SEQ ID NO: 31, respectively, where pThr is phosphothreonine, Z is aminohexanoic acid, X denotes all amino acids except Cys, and B is a biased mixture of the amino acids P, L, I, V, F, M, W.

T1 sequence (P53350 326-603): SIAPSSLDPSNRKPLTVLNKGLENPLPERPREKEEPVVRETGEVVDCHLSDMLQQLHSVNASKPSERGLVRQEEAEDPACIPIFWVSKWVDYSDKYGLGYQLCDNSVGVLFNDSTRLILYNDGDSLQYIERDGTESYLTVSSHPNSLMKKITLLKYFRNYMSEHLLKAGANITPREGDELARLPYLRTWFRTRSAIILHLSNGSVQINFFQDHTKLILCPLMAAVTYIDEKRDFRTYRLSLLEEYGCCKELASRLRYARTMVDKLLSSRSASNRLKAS

peptide binding to Plk-1 PBD by ITC (in words): complete loss of binding
Substance: MAGPMQ-S-T-P-LNGAKK (MAGPMQSTPLNGAKK) [PoloBoxtide-8T]
